Series [1] deals with the molecule itself. Nature of the series: FRET or BRET; as a1 but 35 nM donor (AF555)-labelled octamers; 45 mM KCl, 50 mM Tris-HCl pH 8.0; room temperature; apparent Kd.
Series [2] has as its target T1, Shs1(E344C)-capped, otherwise Cys-less septin hetero-octamer (Shs1-Cdc12-Cdc3-Cdc10-Cdc10-Cdc3-Cdc12-Shs1) (S. cerevisiae, UniProt Q07657 1-551; P32468 1-407; P32457 1-520; P25342 1-322, C29V | C148S | E344C | C40A | C278S | C124V | C253V | C279V | C266S, Alexa Fluor 555 maleimide (donor) or Alexa Fluor 647 maleimide (acceptor) on C344 (E344C)).
T1 construct: Cdc12, S. cerevisiae mitotic septin, Cys-less variant; Cdc3, S. cerevisiae mitotic septin, Cys-less variant; Cdc10, S. cerevisiae mitotic septin, Cys-less variant; Donor- and acceptor-labelled preparations are written as this one molecule; also called Shs1^AF555; Shs1^AF647; source: E. coli NiCo21 (DE3), subunits co-expressed, purified (IMAC, chitin-agarose flow-through, SEC), maleimide …
The series is described as above. As to conditions: both partners purified.

Series [3] concerns the target T2, Shs1(Δ2–18/Δα0 E344C)-capped, otherwise Cys-less septin hetero-octamer (S. cerevisiae, UniProt Q07657 1-551; P32468 1-407; P32457 1-520; P25342 1-322, Δ2–18 | C29V | C148S | E344C | C40A | C278S | C124V | C253V | C279V | C266S, Alexa Fluor 555 maleimide (donor) on C344 (E344C)).
T2 construct: Cdc12, S. cerevisiae mitotic septin, Cys-less variant; Cdc3, S. cerevisiae mitotic septin, Cys-less variant; Cdc10, S. cerevisiae mitotic septin, Cys-less variant; also called Shs1 Δα0^AF555; Shs1(Δα0) complexes; source: E. coli NiCo21 (DE3), subunits co-expressed, purified (IMAC, chitin-agarose flow-through, SEC), maleimide dye-labelled; not shown: His6, N-terminal, kept; copies: 2 + 2 + 2 + 2
Nature of the series: FRET or BRET; 25 nM donor (AF555)-labelled octamers titrated with acceptor (AF647)-labelled octamers, serial dilutions from 100 nM; 45 mM KCl, 50 mM Tris-HCl pH 8.0; room temperature, 1 h equilibration; triplicate; PCA and curve fit; apparent Kd of end-to-end association of rods. As to conditions: both partners purified.

Series [4] concerns the molecule itself. Nature of the series: FRET or BRET; as a1 but 50 nM donor (AF555)-labelled octamers; 45 mM KCl, 50 mM Tris-HCl pH 8.0; room temperature; apparent Kd.
The target in series [5] is T1, Shs1(E344C)-capped, otherwise Cys-less …. The description is as above. Particulars: both partners purified.
Series [6] deals with the molecule itself. The series can be described thus: FRET or BRET; standard titrations of donor-labelled rods with acceptor-labelled rods in buffers of increasing KCl concentration (corrected FRET method); result at high ionic strength; apparent Kd.
Series [7] concerns the molecule itself. The series can be described thus: FRET or BRET; 25 nM donor (AF555)-labelled octamers titrated with acceptor (AF647)-labelled octamers, serial dilutions from 100 nM; 45 mM KCl, 50 mM Tris-HCl pH 8.0; room temperature, 1 h equilibration; triplicate; PCA and curve fit; apparent Kd of end-to-end association of rods.
The target in series [8] is T1, Shs1(E344C)-capped, otherwise Cys-less …. The series is described as above. Particulars: both partners purified.
Series [9] deals with the molecule itself. The series can be described thus: FRET or BRET; equimolar (1:1) donor- and acceptor-labelled octamers while varying ionic strength (KCl); PCA; EC50 of ionic strength and apparent Hill coefficient.
The target in series [10] is T1, Shs1(E344C)-capped, otherwise Cys-less …. The description is as above. Particulars: both partners purified.

T1 sequence (Q07657 whole entry C29V/C148S/E344C, one chain of several): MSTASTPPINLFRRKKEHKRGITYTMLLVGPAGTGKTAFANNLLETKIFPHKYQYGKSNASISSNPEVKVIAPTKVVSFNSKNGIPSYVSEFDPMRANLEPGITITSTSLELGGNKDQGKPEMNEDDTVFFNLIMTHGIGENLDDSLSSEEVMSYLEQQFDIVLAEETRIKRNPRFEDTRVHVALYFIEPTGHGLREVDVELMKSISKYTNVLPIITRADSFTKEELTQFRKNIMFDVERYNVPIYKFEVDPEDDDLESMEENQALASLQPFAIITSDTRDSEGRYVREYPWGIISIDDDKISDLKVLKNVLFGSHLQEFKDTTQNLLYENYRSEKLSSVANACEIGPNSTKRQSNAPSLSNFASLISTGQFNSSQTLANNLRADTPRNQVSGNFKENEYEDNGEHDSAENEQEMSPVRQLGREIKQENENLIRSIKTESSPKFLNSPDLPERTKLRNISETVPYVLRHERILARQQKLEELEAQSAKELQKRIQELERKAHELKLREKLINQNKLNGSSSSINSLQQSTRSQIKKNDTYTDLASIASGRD
T2 sequence (Q07657 other isoform, or with tags, fused parts or gaps with the stated changes): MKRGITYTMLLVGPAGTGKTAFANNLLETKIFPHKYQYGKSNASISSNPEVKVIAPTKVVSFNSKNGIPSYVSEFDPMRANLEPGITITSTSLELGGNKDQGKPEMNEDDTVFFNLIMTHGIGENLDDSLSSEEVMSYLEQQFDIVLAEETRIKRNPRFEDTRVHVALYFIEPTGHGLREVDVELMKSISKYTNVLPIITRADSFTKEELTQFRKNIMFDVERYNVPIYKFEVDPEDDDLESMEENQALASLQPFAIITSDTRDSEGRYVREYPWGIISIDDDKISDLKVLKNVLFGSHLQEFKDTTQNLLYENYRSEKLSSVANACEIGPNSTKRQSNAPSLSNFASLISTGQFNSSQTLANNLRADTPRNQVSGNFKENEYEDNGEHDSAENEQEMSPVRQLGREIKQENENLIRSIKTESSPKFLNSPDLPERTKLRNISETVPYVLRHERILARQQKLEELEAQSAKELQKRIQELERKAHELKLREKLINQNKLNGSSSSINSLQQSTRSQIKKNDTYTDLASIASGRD

B1: Cdc11(E294C)-capped, otherwise Cys-less septin hetero-octamer (Cdc11-Cdc12-Cdc3-Cdc10-Cdc10-Cdc3-Cdc12-Cdc11) (complex, S. cerevisiae)
chain 1: MSGIIDASSALRKRKHLKRGITFTVMIVGQSGSGRSTFINTLFGQQVVDTSTTILLPTDTSTEIDLQLREETVELEDDEGVKIQLNIIDTPGFGDSLDNSPSFEIISDYIRHQYDEILLEESRVRRNPRFKDGRVHAALYLINPTGHGLKEIDVEFIRQLGSLVNIIPVISKSDSLTRDELKLNKKLIMEDIDRWNLPIYNFPFDEDEISDEDYETNMYLRTLLPFAIIGSNEVYEMGGDVGTIRGRKYPWGILDVEDSSISDFVILRNALLISHLHDLKNYTHEILYERYRTCALSGESVAAESIRPNLTKLNGSSSSSTTTRRNTNPFKQSNNINNDVLNPASDMHGQSTGENNETYMTREEQIRLEEERLKAFEERVQQELLLKRQELLQREKELREIEARLEKEAKIKQEE
chain 2: MSAATATAAPVPPPVGISNLPNQRYKIVNEEGGTFTVMLAGESGLGKTTFINTLFQTVLKRADGQQHRQEPIRKTVEIDITRALLEEKHFELRVNVIDTPGFGDNVNNNKAWQPLVDFIDDQHDSYMRQEQQPYRTKKFDLRVHAVLYFIRPTGHGLKPIDIETMKRLSTRANLIPVIAKADTLTAQELQQFKSRIRQVIEAQEIRIFTPPLDADSKEDAKSGSNPDSAAVEHARQLIEAMPFAIVGSEKKFDNGQGTQVVARKYPWGLVEIENDSHSDFRKLRALLLRTYLLDLISTTQEMHYETYRRLRLEGHENTGEGNEDFTLPAIAPARKLSHNPRYKEEENALKKYFTDQVKAEEQRFRQWEQNIVNERIRLNGDLEEIQGKVKKLEEQVKSLQVKKSHLK
chain 3: MSLKEEQVSIKQDPEQEERQHDQFNDVQIKQESQDHDGVDSQYTNGTQNDDSERFEAAESDVKVEPGLGMGITSSQSEKGQVLPDQPEIKFIRRQINGYVGFANLPKQWHRRSIKNGFSFNLLVVGPDGIGKTTLMKTLFNNDDIEANLVKDYEEELANDQEEEEGQGEGHENQSQEQRHKVKIKSYESVIEENGVKLNLNVIDTEGFGDFLNNDQKSWDPIIKEIDSRFDQYLDAENKINRHSINDKRIHAVLYFIEPTGHYLKPLDLKFMQSVYEKVNLIPVIAKSDILTDEEILSFKKTIMNQLIQSNIELFKPPIYSNDDAENSHLSERLFSSLPYAVIGSNDIVENYSGNQVRGRSYPWGVIEVDNDNHSDFNLLKNLLIKQFMEELKERTSKILYENYRSSKLAKLGIKQDNSVFKEFDPISKQQEEKTLHEAKLAKLEIEMKTVFQQKVSEKEKKLQKSETELFARHKEMKEKLTKQLKALEDKKKQLELSINSASPNVNHSPVPTKKKGFLR
chain 4: MDPLSSVQPASYVGFDTITNQIEHRLLKKGFQFNIMVVGQSGLGKSTLINTLFASHLIDSATGDDISALPVTKTTEMKISTHTLVEDRVRLNINVIDTPGFGDFIDNSKAWEPIVKYIKEQHSQYLRKELTAQRERFITDTRVHAILYFLQPNGKELSRLDVEALKRLTEIANVIPVIGKSDTLTLDERTEFRELIQNEFEKYNFKIYPYDSEELTDEELELNRSVRSIIPFAVVGSENEIEINGETFRGRKTRWSAINVEDINQSDFVYLREFLIRTHLQDLIETTSYIHYEGFRARQLIALKENANSRSSAHMSSNAIQR
modifications: Alexa Fluor 555 maleimide (donor) or Alexa Fluor 647 maleimide (acceptor) on C294 (E294C); 0.7-0.8 dye molecules per subunit
notes: intact CTE (residues 303-415) restored; Cdc12, S. cerevisiae mitotic septin, Cys-less variant; Cdc3, S. cerevisiae mitotic septin, Cys-less variant; Cdc10, S. cerevisiae mitotic septin, Cys-less variant; The same preparation was labelled separately with donor (AF555) or acceptor (AF647); both are written as this one molecule; also called Cdc11^AF555; Cdc11^AF647; source: E. coli NiCo21 (DE3), …
Turning to B1, the Kd in series [1] was 0.0345 µM; in series [2] it was 0.0213 µM; in [3], 0.0406 µM; in [4], 0.0388 µM; in series [5], 0.0275 µM; in series [6], above 0.1 µM. The Kd in [7] stood at 0.0202 µM; in series [8], 0.0108 µM. Moreover, the “ionic strength (KCl) at EC50 of the FRET signal” value in series [9] worked out at 181000 µM; in [10], 198000 µM.

The record behind these values is publication PMC4653696 (The Journal of Biological Chemistry, 2015).
